Laboratory results published in patent US20230192886A1 (IMMATICS BIOTECHNOLOGIES, published 2023).

B1: TCR R16P1E8 (TCR, V domains shown)
V domain 1: QKEVEQDPGPLSVPEGAIVSLNCTYSNSAFQYFMWYRQYSRKGPELLMYTYSSGNKEDGRFTAQVDKSSKYISLFIRDSQPSDSATYLCAMSEAAGNKLTFGGGTRVLVKP
V domain 2: EAGVAQSPRYKIIEKRQSVAFWCNPISGHATLYWYQQILGQGPKLLIQFQNNGVVDDSQLPKDRFSAERLKGVDSTLKIQPAKLEDSAVYLCASSYTNQGEAFFGQGTRLTVVE
B2: TCR R17P1D7 (TCR, V domains shown)
V domain 1: QTVTQSQPEMSVQEAETVTLSCTYDTSESDYYLFWYKQPPSRQMILVIRQEAYKQQNATENRFSVNFQKAAKSFSLKISDSQLGDAAMYFCAYRWAQGGSEKLVFGKGTKLTVNP
V domain 2: DIYQTPRYLVIGTGKKITLECSQTMGHDKMYWYQQDPGMELHLIHYSYGVNSTEKGDLSSESTVSRIRTEHFPLTLESARPSHTSQYLCATELWSSGGTGELFFGEGSRLTVLE

Target: PRAME-004 peptide presented by HLA-A*02 on target cells (peptide-loaded T2 cells); PRAME-004-presenting tumor … (human)
Assay: cell-based or functional assay

| Binder | EC50 of IFNγ release, T2 cells loaded with PRAME-004 from 10 µM to 10 pM (FIG. 12) | EC50 of IFNγ release, T2 cells loaded with PRAME-004 from 10 µM to 10 pM (FIG. 13) |
| --- | --- | --- |
| B1 | ~1 µM | – |
| B2 | – | 1.83 nM |
